For three molecules, BRET50 (Kd) (intensity ratio of RAMP:receptor) results are on record in publication PMC8897147.

Assay in all cases: FRET or BRET
(In general: Bioluminescence resonance energy transfer reports proximity on the nanometre scale.)

The target in test [1] is T1, growth hormone-releasing hormone receptor-Rluc8, Q02643.
T1 chain: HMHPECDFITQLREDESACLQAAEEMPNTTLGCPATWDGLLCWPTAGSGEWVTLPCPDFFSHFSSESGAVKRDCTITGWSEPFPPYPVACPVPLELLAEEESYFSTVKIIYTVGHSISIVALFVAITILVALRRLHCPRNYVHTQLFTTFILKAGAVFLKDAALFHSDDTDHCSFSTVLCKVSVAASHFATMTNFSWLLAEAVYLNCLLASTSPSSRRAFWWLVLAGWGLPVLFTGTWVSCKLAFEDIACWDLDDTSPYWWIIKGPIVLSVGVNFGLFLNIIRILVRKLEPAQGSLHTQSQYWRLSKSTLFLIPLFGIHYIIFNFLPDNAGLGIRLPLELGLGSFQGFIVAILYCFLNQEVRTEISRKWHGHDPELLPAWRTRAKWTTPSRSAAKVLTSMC
To be noted: remark: other sources report otherwise.

The target of test [2] is T2, glucagon-like peptide-1 receptor-Rluc8, P43220.
T2 chain: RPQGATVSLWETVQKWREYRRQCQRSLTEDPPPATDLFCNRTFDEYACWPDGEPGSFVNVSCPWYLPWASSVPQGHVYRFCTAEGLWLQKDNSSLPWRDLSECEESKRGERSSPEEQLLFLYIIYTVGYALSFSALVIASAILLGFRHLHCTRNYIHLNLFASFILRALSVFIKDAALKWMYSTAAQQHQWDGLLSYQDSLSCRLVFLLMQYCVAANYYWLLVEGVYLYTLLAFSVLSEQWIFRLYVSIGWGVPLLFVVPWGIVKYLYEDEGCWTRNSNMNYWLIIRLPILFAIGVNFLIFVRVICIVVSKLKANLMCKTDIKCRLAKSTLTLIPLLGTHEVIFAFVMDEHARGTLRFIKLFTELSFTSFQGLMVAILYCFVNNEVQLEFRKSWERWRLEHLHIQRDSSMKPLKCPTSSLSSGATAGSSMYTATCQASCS
As to conditions: remark: other sources report otherwise.

In test [3] the target is secretin receptor-Rluc8, P47872. To be noted: remark: other sources report otherwise.
secretin receptor-Rluc8, P47872, sequence (P47872 23-440): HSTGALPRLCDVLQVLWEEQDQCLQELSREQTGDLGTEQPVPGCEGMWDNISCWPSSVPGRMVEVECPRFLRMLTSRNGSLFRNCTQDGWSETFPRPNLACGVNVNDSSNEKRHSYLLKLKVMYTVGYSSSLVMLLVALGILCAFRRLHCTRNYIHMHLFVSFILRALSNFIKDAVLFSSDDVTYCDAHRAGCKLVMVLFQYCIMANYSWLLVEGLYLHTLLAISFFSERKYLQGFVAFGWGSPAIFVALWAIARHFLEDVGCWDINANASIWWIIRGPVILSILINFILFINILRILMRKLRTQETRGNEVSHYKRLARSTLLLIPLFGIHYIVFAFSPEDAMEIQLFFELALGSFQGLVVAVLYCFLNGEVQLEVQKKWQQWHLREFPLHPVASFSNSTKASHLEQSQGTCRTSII
The target of test [4] is SV1, splice variant of GHRHR, -Rluc8.

B1: RAMP1-Ypet (receptor activity-modulating protein 1), O60894 27-148 (natural protein)
chain: CQEANYGALLRELCLTQFQVDMEAVGETLWCDWGRTIRSYRELADCTWHMAEKLGCFWPNAEVDRFFLAVHGRYFRSCPISGRAVRDPPGSILYPFIVVPITVTLLVTALVVWQSKRTEGIV
Regarding B1, the figures for the BRET50 (Kd) (intensity ratio of RAMP:receptor) in test [1], in test [2] and in test [3] were 2.43, 10.9 and 1.3, respectively.

B2: RAMP2-Ypet (receptor activity-modulating protein 2), O60895 43-175 (natural protein)
chain: QPLPTTGTPGSEGGTVKNYETAVQFCWNHYKDQMDPIEKDWCDWAMISRPYSTLRDCLEHFAELFDLGFPNPLAERIIFETHQIHFANCSLVQPTFSDPPEDVLLAMIIAPICLIPFLITLVVWRSKDSEAQA
On to B2, for which the BRET50 (Kd) (intensity ratio of RAMP:receptor) amounted to 2.23 in test [2] and 2.41 in test [3].

B3: RAMP3-Ypet (receptor activity-modulating protein 3) (natural protein)
chain: RAGGCNETGMLERLPLCGKAFADMMGKVDVWKWCNLSEFIVYYESFTNCTEMEANVVGCYWPNPLAQGFITGIHRQFFSNCTVDRVHLEDPPDEVLIPLIVIPVVLTVAMAGLVVWRSKRTDTLL
As for B3, in test [4], the BRET50 (Kd) (intensity ratio of RAMP:receptor) stood at 5.98.
